Reference: paper PMC4262734

Target: HA-Cdk2 (UniProt P24941)
Experiment: co-IP; HeLa cells co-overexpressing wild-type or mutant Flag-p27Xic1 with HA-Cdk2; binding quantified against wild type (mean ± SEM)

Row | increase of binding against wild-type p27Xic1 [%] | reduction of binding against wild-type p27Xic1 [%] | Substance
1 | 140 | – | Flag-p27Xic1 T68A (natural protein)
2 | – | 50 | Flag-p27Xic1 T68E (natural protein)
